To fix the notation:
B1: HapX^161-491 (A. fumigatus HapX C-terminus with all four cysteine-rich regions) (domain or fragment, UniProt Q4WER3 161-491, looked up)
chain: KGLAPLTTSTPQARSSDRPDNGDASNNDSGEGREEVPLGCNDCSTSHCQCIEDAFTMPGVVAQEQSRRLDTTKPGLSEPQIKPDPEEMEIDFTSRFAATQQQDQSPTSVSSPAVDPCGFCSDGTPCICAEMAAQEEQRPRRNSFENNRLAPIQNLSQFTPPPSDGDVRSDVTLPPISQATNPCANGPGTCAQCLADPRRTLFCKTLAASRSPSAAPSGCCGGKGADGGCCQSRNTNVSRGRSGSNNNTSSGSSAAPSLTLSCADAYTTLSRHPNFSRATDELSTWLPKLHTLPKPRDFPLTDRGVPRAALEVEAASVMGVLRYFDRRFADK
notes: HapX of Aspergillus fumigatus (Afu5g03920), amino acids 161-491 (cysteine-rich C-terminus), from a synthetic gene; also called AfuHapX^161-491; pnCS-HapX161-491; source: E. coli BL21(DE3), untagged, bicistronically co-expressed with GrxD-His6; in crude cell extract, then co-purified (Ni-Sepharose, SEC)
B2: GrxD^C191A (recombinant GrxD with cysteine 191 mutated to alanine) (natural protein)
chain: MSTLNEITSDADFSAHTSSLPPSTLLVLYFHAPWAAPCAQMRAVLSALASQHPVTTPPTISFVSVNAEELPDISEEYNVTAVPYVVLIRNGQILESISGSDAVKVRDAVERHAGAGSGAGADGANKTAIPPPLTATPRENAPAAAAQPPAPSTQALTPEQSKEALFARLAELVKAAPVMLFMKGTPSAPQAGFSRQLVAILREKSVKYGFFNILADEDVRQGLKEFADWPTFPQLWVEGELVGGLDIVKEEINNDPDFLSQYSINKAPASA
notes: GrxD of Aspergillus fumigatus (Afu2g14960), full length, C191 of the CGFS motif mutated to A; source: E. coli BL21(DE3), co-produced with HapX^161-491, purified (Ni-chelate, TEV protease, SEC); not shown: His6, C-terminal, cleaved

Experiment [1] concerns the target T1, GrxD (recombinant full-length GrxD after removal of the His-tag by TEV protease) (A. fumigatus, UniProt Q4X024 1-271).
T1 construct: GrxD of Aspergillus fumigatus (Afu2g14960), full length, from a synthetic gene; Residues of the TEV site may be left at the C-terminus after cleavage (surmise); source: E. coli BL21(DE3), co-expressed with HapX^161-491, purified (Ni-Sepharose, TEV protease, Superdex 200 SEC); not shown: His6, C-terminal, cleaved
T1 sequence (looked up): B2 chain with A191C
Description: SEC; Ni-chelate eluate digested with TEV protease and loaded on Superdex 200 prep grade 26/60 in 25 mM HEPES pH 7.5, 150 mM NaCl, 2 mM glutathione; apparent masses from protein calibration standards; fractions checked by SDS-PAGE. To be noted: both partners purified. In general terms: Size exclusion chromatography separates by hydrodynamic size, large species first.

In experiment [2] the target is B1. Described as above. As to conditions: both partners purified.

Substitutions are numbered along the chain they refer to. Names and notes keep the numbering of the source.

As to B1, the stoichiometry N (as a rule, a count of units in the complex or per binding partner) in experiment [1] was ~1 HapX^161-491 per GrxD (2:2).
For the molecule B2, in experiment [2], the binding result was “binds”.

The record behind these values is publication PMC6762210, “The monothiol glutaredoxin GrxD is essential for sensing iron starvation in Aspergillus fumigatus” (PLoS Genetics, 2019).
